Data on two molecules can be found in US20180355049A1 (CANTARGIA, published 2018).

Test [1] deals with T1, IL1RAP protein (analyte of the Biacore study, Example A(i)) (human, UniProt Q9NPH3 21-367, limits assumed).
T1 construct: also called the analyte; human IL1RAP
T1 sequence (looked up): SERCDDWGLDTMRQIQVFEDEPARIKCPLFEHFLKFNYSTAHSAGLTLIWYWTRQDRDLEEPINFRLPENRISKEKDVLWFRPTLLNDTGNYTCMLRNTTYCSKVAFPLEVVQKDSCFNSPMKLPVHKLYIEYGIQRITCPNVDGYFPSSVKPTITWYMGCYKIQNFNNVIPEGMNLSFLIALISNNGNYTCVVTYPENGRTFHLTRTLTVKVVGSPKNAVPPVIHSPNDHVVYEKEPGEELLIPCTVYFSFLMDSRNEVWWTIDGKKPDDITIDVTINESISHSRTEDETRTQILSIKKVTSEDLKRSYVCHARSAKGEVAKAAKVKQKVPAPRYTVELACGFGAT
Nature of the test: SPR, BIAcore T200, antibody captured by anti-mouse IgG, analyte 100 nM, 25 C. The procedure:
Goat anti-mouse IgG was immobilized on a CM5 chip according to the technical manual of capture kit and standard operation principle of BIAcore T200 (Biacore Life Sciences, GE Healthcare Europe GmbH, Uppsala, Sweden).
The capture molecule surface was regenerated after each binding cycle using the manufacturer's recommended conditions.
After five cycles of start-up, each antibody (100 nM) was injected at a flow rate of 30 μl/min, for 120 s, at the start of the cycle; then the analyte (100 nM) was injected at a flow rate of 30 μl/min, for 120 s, followed by monitoring the dissociation phase for 300 s.
(In general: SPR reads the build-up and loss of mass on a sensor chip optically.)

Test [2] deals with T2, human IL1RAP on cells (KU812, LAMA-84, HEK-Blue IL-33/IL-1β cells) (human, UniProt Q9NPH3 21-570).
T2 sequence (looked up): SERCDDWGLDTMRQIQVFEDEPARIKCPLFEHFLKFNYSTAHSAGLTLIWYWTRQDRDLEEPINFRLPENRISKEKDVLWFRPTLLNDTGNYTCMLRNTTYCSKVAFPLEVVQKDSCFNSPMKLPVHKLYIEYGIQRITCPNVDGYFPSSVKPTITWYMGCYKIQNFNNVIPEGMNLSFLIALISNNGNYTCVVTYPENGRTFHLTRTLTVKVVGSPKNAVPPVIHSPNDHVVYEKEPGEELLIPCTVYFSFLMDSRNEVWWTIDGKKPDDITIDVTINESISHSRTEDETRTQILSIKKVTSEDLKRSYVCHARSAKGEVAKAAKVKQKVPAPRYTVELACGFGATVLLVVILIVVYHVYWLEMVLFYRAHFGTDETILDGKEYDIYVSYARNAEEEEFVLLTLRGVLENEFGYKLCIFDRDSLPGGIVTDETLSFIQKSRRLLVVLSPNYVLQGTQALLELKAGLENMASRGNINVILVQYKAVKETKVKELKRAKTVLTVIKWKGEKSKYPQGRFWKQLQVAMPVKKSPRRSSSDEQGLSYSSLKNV
Nature of the test: cell-based or functional assay.

The target in test [3] is T2, human IL1RAP on cells (KU812, LAMA-84, …). The test can be described thus: cell-based or functional assay. This is another data set of the same source.

B1: CAN01 (antibody, V domains shown)
VH: QVQLQQSGTELMKPGASVKISCKATGYTVSSYWIDWVKQTPGHGLEWIGEILPGSAINNYNEKFKGKATFTADTSSNTAYMQLSSLTSEDSAVYYCASGDYFDSTFVYYWGQGTTLTVSS
VL: DVLMTQTPLSLPVSLGDQASISCRSSQSIVHSNGNTYLEWYLQKPGQSPKLLIYKVSNRFSGVPDRFSGSGSGTDFTLKISRVEAEDLGVYYCFQGSHVPRTFGGGTKLEIKR
notes: Murine-derived monoclonal anti-IL1RAP antibody; also called CAN01-AF488 (AlexaFluor488-labelled form)
As for B1, in test [1], the Kd – broadly, the constant that tells how readily two partners part at equilibrium – turned out to be 1.43 nM; the koff (commonly the first-order rate constant of dissociation) stood at 0.000335 s⁻¹; the on-rate constant (kon) (as a rule, a measure of how fast the partners come together) came to 234000 M⁻¹ s⁻¹. For the same molecule, in test [2], the “EC50, murine IL-1 alpha-stimulated HEK-Blue IL-33/IL-1β cells” value is 84.2 nM; the “EC50, murine IL-1 beta-stimulated HEK-Blue IL-33/IL-1β cells” value was over 100 nM; the “EC50, murine IL-33-stimulated HEK-Blue IL-33/IL-1β cells” value is over 100 nM; the “IC50, murine IL-1 alpha-stimulated HEK-Blue IL-33/IL-1β cells” value was 81.7 nM. In test [2], the “IC50, murine IL-1 beta-stimulated HEK-Blue IL-33/IL-1β cells” value turned out to be 50 nM and the “IC50, murine IL-33-stimulated HEK-Blue IL-33/IL-1β cells” value was over 100 nM.

B2: CAN03 (antibody, V domains shown)
VH: DVKLVESGGGLVKPGGSLKLSCAASGFTFSIYTMSWVRQTPEKRLEWVATISIGGSYINYPDSVKGRFTISRDNAKNTLYLQMSSLKSEDTAIYYCSREVDGSYAMDYWGQGTSVTVSS
VL: DILLTQSPAILSVSPGERVSFSCRASQSIGTSIHWYQRRTNGSPRLLIKSASESISGIPSRFSGSGSGTDFTLSINSVESEDIADYYCQQSNSWPTTFGAGTKLELKR
notes: Murine-derived monoclonal anti-IL1RAP antibody; also called CAN03-AF488 (AlexaFluor488-labelled form)
For the molecule B2, in test [3], the “EC50, human IL-1α-stimulated HEK-Blue IL-33/IL-1β cells” value was determined as 37.6 nM; the “EC50, human IL-1β-stimulated HEK-Blue IL-33/IL-1β cells” value came to 10.5 nM; the “EC50, human IL-33-stimulated HEK-Blue IL-33/IL-1β cells” value came out at 30.5 nM; the “IC50, human IL-1α-stimulated HEK-Blue IL-33/IL-1β cells” value came out at 37.3 nM. Besides, in test [3], the “IC50, human IL-1β-stimulated HEK-Blue IL-33/IL-1β cells” value was determined as 10.1 nM and the “IC50, human IL-33-stimulated HEK-Blue IL-33/IL-1β cells” value came out at 30.4 nM. In test [1], this molecule yielded a Kd of 0.321 nM, a koff of 7.25e-05 s⁻¹ and a kon of 226000 M⁻¹ s⁻¹. Also, in test [2], the “EC50, murine IL-1 alpha-stimulated HEK-Blue IL-33/IL-1β cells” value is 2.9 nM; the “EC50, murine IL-1 beta-stimulated HEK-Blue IL-33/IL-1β cells” value was determined as 1.56 nM; the “EC50, murine IL-33-stimulated HEK-Blue IL-33/IL-1β cells” value was 4.01 nM; the “IC50, murine IL-1 alpha-stimulated HEK-Blue IL-33/IL-1β cells” value stood at 5 nM. Besides, in test [2], the “IC50, murine IL-1 beta-stimulated HEK-Blue IL-33/IL-1β cells” value came to 1.59 nM and the “IC50, murine IL-33-stimulated HEK-Blue IL-33/IL-1β cells” value stood at 4.12 nM.
